A value given as a limit tells only on which side of the number the result lay.

Test [1] concerns the target AT1R, endogenous in mouse lung (mouse (endogenous in CD-1 mouse lung)) (UniProt P29754). The test can be described thus: proximity ligation; in situ PLA on fixed 30 µm lung sections of adult CD-1 mice; primary antibodies to the receptor and to ACE2, Duolink II probes anti-rabbit plus and anti-mouse minus; confocal microscopy.
The target of test [2] is MasR, endogenous in mouse lung (mouse (endogenous in CD-1 mouse lung)) (UniProt P30554). The description is as above.
The target of test [3] is AT1R, endogenous in mouse lung (mouse (endogenous in CD-1 mouse lung)) (UniProt P29754). The test can be described thus: proximity ligation; in situ PLA on fixed 30 µm lung sections of 19-day fetal CD-1 mice; primary antibodies to the receptor and to ACE2, Duolink II probes anti-rabbit plus and anti-mouse minus; confocal microscopy.
Test [4] addresses MasR, endogenous in mouse lung (mouse (endogenous in CD-1 mouse lung)) (UniProt P30554). Described as above.
The target of test [5] is AT2R, endogenous in mouse lung (mouse (endogenous in CD-1 mouse lung)) (UniProt P35374). The test is described as follows: proximity ligation; in situ PLA on fixed 30 µm lung sections of adult CD-1 mice; primary antibodies to the receptor and to ACE2, Duolink II probes anti-rabbit plus and anti-mouse minus; confocal microscopy.
For test [6] the target is unchanged. The test can be described thus: proximity ligation; in situ PLA on fixed 30 µm lung sections of 19-day fetal CD-1 mice; primary antibodies to the receptor and to ACE2, Duolink II probes anti-rabbit plus and anti-mouse minus; confocal microscopy.

Sequence of UniProt P35374 (P35374 whole entry): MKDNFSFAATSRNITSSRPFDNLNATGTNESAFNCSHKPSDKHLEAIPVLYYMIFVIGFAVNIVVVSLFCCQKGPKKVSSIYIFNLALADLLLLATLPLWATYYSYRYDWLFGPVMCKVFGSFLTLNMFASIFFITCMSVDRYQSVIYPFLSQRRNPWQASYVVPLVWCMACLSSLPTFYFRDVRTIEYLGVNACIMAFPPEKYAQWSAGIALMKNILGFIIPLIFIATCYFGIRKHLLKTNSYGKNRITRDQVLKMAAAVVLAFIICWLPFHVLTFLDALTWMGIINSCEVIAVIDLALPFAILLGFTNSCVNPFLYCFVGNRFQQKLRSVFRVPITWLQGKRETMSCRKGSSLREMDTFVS
Sequence of UniProt P29754 (P29754 whole entry): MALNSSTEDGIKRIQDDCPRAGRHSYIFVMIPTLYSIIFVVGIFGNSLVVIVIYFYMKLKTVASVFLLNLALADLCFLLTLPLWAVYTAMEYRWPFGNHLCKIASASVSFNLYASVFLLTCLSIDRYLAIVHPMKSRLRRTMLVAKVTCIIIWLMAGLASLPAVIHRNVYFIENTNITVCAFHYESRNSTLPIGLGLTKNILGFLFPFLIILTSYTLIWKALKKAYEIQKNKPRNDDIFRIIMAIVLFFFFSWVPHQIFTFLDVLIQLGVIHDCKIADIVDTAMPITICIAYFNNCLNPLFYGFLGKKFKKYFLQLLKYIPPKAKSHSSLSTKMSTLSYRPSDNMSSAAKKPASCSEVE
Sequence of UniProt P30554 (P30554 whole entry): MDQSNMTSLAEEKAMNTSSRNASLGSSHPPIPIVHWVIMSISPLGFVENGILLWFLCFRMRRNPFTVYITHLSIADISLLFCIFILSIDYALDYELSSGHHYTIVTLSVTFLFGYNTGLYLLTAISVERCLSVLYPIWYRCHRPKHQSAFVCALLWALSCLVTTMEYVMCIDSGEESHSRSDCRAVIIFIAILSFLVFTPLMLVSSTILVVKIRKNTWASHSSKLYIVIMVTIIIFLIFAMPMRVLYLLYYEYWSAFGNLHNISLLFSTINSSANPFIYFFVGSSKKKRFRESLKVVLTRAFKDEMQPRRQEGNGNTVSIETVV

For the substance “ACE2, endogenous in mouse lung (from UniProt Q8R0I0 18-805) (enzyme)”, the percent of cells with PLA signal in test [1] is 14 % of cells; in test [2], 8 % of cells; in test [3] it was < 1 % of cells; in test [4] it was < 1 % of cells. The red dots per dot-containing cell (red dots/cell-expressing dots) in test [1] is 10; in test [2] it was 7.
With “ACE2, endogenous in mouse lung (from UniProt Q8R0I0 18-805) (proximity to ACE2)”, in test [5], the percent of cells with PLA signal is 11 % of cells and the red dots per dot-containing cell (red dots/cell-expressing dots) is 6. The percent of cells with PLA signal in test [6] was < 1 % of cells.

Source of the values: article PMC7766085.
